These results are taken from patent publication US20050069542A1 (Human Genome Sciences, published 2005).

Changes are numbered by the printed parent chain.

The labels stand for the following.
B1: GMBC603 (scFv)
scFv: QVQLVQSGGGVVRPGGSLRLSCAASGFTFDDYGMSWVRQAPGKGLEWVSGINWNGGSTGYADSVKGRFTISRDNAKNSLYLQMNSLRAEDTALYYCAKDLNYDFWSGSGMDVWGRGTLVTVSSGGGGSGGGGSGGGGSQSVLTQPASVSGSPGQSITISCTGTSSDVGGYNYVSWYQQHPGKAPKLMIYEGSKRPSGVSNRFSGSKSGNTASLTISGLQAEDEADYYCSSYTTRSTRVFGGGTKLTVLG
B2: GMBC613 (scFv)
scFv: KVQLVESGGGLVQPGGSLRLSCAASGFTISSHWMSWVRQAPGKGLEWVASIKQDGREKHFVDSVKGRFSISRDNAKNSLYLQMNSLRTEDTAVYYCARETYGGYYYYFMDVWGKGTLVTVSSGGGGSGGGGSGGGGSSELTQDPAVSVALGQTVRITCQGDSLRSYYASWYQQKPGQAPVLVIYGKNNRPSGIPDRFSGSSSGNTASLTITGAQAEDEADYYCNSRDSSGNHVVFGGGTKLTVLG
B3: GMBC617 (scFv)
scFv: EVQLVETGGGLVQPGGSLRLSCAASGFTVSSNYMSWVRQAPGKGLEWVSVIYSGGSTYYADSVKGRFTISRHNSKNTLYLQMNSLRAEDTAVYYCARGLWFGELLYWGQGTLVTVSSGGGGSGGGGSGGGGSQSALTQPASVSGSRGQSITISCTGTTGDVGGYDYVSWYQQHPGKAPKLLIYGNSNRPSGVPDRFSASKSGNTASLTISGLQAEDEADYFCSTYAPPGIIMFGGGTKLTVLG
B4: GMBC692 (scFv)
scFv: EVQLVQSGGGLVKPGGSLRLSCAASGFTFSDAWMNWVRQAPGKGLEWVGRIKSKGSGGTIDYAAPVKDRFTISRDDSKNTLYLQMNSLKTEDTALYYCTWDWDFYYGMNVWGRGTLVTVSSGGGGSGGGGSGGGGSQSVLTQPASVSGSPGQSITISCTGTSSDVGGYNYVSWYQQHPGKAPKLMIYEGSKRPSGVSNRFSGSKSGNTASLTISGLQAEDEADYYCSSYTTRSTRVFGGGTKLTVLG
B5: GMBC679 (scFv)
scFv: QVQLVESGGGLVKPGGSLRLSCAASGFTFSDAWMNWVRQAPGKGLEWVGRIKSKGSGGTTDYAAPVKDRFTISRDDSENTLYLQMNSLKTEDTAVYYCTWDHSYYYDMAVWGRGTLVTVSSGGGGSGGGGSGGGGSQSVLTQPASVSGSPGQSITISCTGTSSDVGGYNYVSWYQQHPGKAPKLVIYEGSKRPSGVSNRFSGSKSGNTASLTISGLQAEDEADYYCSSYTTRSTRVFGGGTKLTVLG
B6: GMBC605 (scFv)
scFv: B4 scFv with E1Q, A23E, A24T, T28K
B7: GMBC634 (scFv)
scFv: B4 scFv with E1Q, R113Q
B8: GMBC727 (scFv)
scFv: EVQLVESGGDTVKPGGSLRLSCAGSGFTFSDAWMNWVRQAPGKGLEWVGRMKSKGSGGTRDYAAPVNGRFTISRDDSKNTLYLQMNSLNTEDTGVYYCTWDWDFYYGMNVWGRGTLVTVSSGGGGSGGGGSGGGGSQSVLTQPASVSGSPGQSITISCTGTSSDVGGYNYVSWYQQHPGKAPKLMIYEGSKRPSGVSNRFSGSKSGNTASLTISGLQAEDEADYYCSSYTTRSTRVFGGGTKLTVLG
B9: GMBC667 (scFv)
scFv: B4 scFv with E1Q, V5Q, Q6E, A24G, T28P, T71R, K89N, T90I, R113Q, L116T
B10: GMBC645 (scFv)
scFv: B4 scFv with Q6E, A24G, T28K, D61E, T71I, N79D, K242E
B11: GMBC616 (scFv)
scFv: B5 scFv with Q1E, A144P, S145F, V185M
B12: GMBC664 (scFv)
scFv: B4 scFv with Q6E, S7T, G10A, G112S, L116M
B13: GMBC607 (scFv)
scFv: B4 scFv with T80M, Q84E, R113Q, L116M, G167D
B14: GMBC658 (scFv)
scFv: B4 scFv with L116T
B15: GMBC614 (scFv)
scFv: B4 scFv with L116M
B16: GMBC684 (scFv)
scFv: B4 scFv with E1Q, T28K, R113Q, L116P, V139A
B17: GMBC654 (scFv)
scFv: B4 scFv with Q6E, S7T, K13E, G55R, T90I, R113K, L116T
B18: GMBC693 (scFv)
scFv: B4 scFv with E1Q, Q6E, R113K, N207D
B19: GMBC676 (scFv)
scFv: B4 scFv with K13Q, D31H, G55A, Q84H, L116M, S153P
B20: GMBC672 (scFv)
scFv: B4 scFv with E1Q, R113Q, G239E
B21: GMBC660 (scFv)
scFv: B4 scFv with T28I, R113Q, L116P
B22: GMBC690 (scFv)
scFv: B4 scFv with L11V, K13Q, G16R, N169I, K180R
B23: GMBC620 (scFv)
scFv: B4 scFv with Q6E, L116M
B24: GMBC670 (scFv)
scFv: B4 scFv with Q6E, S7T, A23V, T71I, M85V, R113Q
B25: GMBC625 (scFv)
scFv: B4 scFv with G55R, N79D, L81M, R113Q, L116M, S201F
B26: GMBC686 (scFv)
scFv: B4 scFv with R113Q, L116T
B27: GMBC651 (scFv)
scFv: B4 scFv with Q6E, K13Q, L116M
B28: GMBC649 (scFv)
scFv: B4 scFv with E1Q
B29: GMBC647 (scFv)
scFv: B4 scFv with Q6E, R113Q, L116T
B30: GMBC615 (scFv)
scFv: B4 scFv with Q6E, T28K, R113K, T118A

This assay concerns the target T1, flag-tagged soluble TL3 (amino acids 105-251 of SEQ ID NO:234) (Homo sapiens (Human), UniProt O75888 105-250).
T1 construct: Heterologous flag-tagged control protein, immobilized in the ELISA; also called flagged tagged TL-3; not shown: Flag tag
T1 sequence: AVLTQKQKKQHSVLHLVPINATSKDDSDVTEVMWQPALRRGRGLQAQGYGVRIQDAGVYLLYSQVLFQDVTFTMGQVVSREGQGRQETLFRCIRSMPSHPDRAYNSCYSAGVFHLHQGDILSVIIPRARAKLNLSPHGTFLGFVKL
Kind of assay: phage ELISA on immobilized flag-tagged soluble TL3. The protocol:
The individual phage isolates in the panel of phage, each phage expressing a unique scFv that bound to flag-tagged GMAD, were tested to ensure specificity for GMAD using an ELISA assay. The scFvs were tested in an ELISA for their ability to bind a heterologous flag-tagged protein, in this case—immobilized soluble TL3 (amino acids 105-251 of SEQ ID NO:234, GenBank Accesion Number NP_{—}003799, also described in International Patent Application Publication Number WO97/33902 and WO2001/96528 which are herein incorporated by reference in their entireties).
As to B1, the binding result is “no binding”.

As for B2, the binding result is “no binding”. Regarding B3, the binding result is listed as “no binding”. As to B4, the binding result is on record as “no binding”. In the case of B5, the binding result was “no binding”. In the case of B6 it was “no binding”; in that of B7, “no binding”; in that of B8, “no binding”. In the case of B9 it was “no binding”.

Consider B10, for which the binding result was “no binding”.

On to B11, for which the binding result is given as “no binding”. The value for B12 was “no binding”; that for B13 was “no binding”. Turning to B14, the binding result is on record as “no binding”. The value for B15 was “no binding”.

Consider B16, for which the binding result is “no binding”. On to B17, for which the binding result is recorded as “no binding”. Take B18: the binding result is given as “no binding”. Regarding B19, the binding result is “no binding”. In the case of B20, the binding result was “no binding”. With B21, the binding result is on record as “no binding”. For the molecule B22, the binding result is given as “no binding”. The value for B23 was “no binding”; that for B24 was “no binding”; that for B25 was “no binding”. Consider B26, for which the binding result is given as “no binding”.

In the case of B27, the binding result is recorded as “no binding”. With B28, the binding result is “no binding”.

As for B29, the binding result is recorded as “no binding”. Turning to B30, the binding result is reported as “no binding”.
